For series [1], the target named is T1, rTRPV1 (Rattus norvegicus, UniProt O35433).
T1 construct: preserved in the full-length construct used for our functional studies; expressed in transfected cells; host or cells: HEK293
Briefly: Whole-cell patch clamp recordings of TRPV1 activation by toxins in transiently transfected HEK293 cells. The format is cell-based. The source says:
Figure 3. Validation of the proposed structural model of the TRPV1-DkTx complex. Close-up of K1 (A) and K2 (B) in the top-ranking ROSETTA model of DkTx bound to TRPV1. Side chains of TRPV1 residues where mutation disrupts DkTx-induced channel activation (I599, F649, A657 and F659) ([Bohlen et al., 2010]) are highlighted in purple. (C) Representative time courses of TRPV1 activation at +120 mV by either DkTx (left panel), K1K1 (middle panel) or K2K2 (right panel) measured from a train of voltage-ramps in the whole-cell configuration with the TRPV1 expressed in HEK cells. […] Fractional dissociation 1 min after toxin removal was quantified across cells as the current amplitude 1 min after toxin removal divided by the steady-state current amplitude in the presence of the toxin. […] Activation of the full-length TRPV1 channel by the toxin at different concentrations was measured in oocytes at a holding voltage of −60 mV. […]
Figure 7. […] Currents were measured every 3 s by applying voltage-ramps of 1 s duration from −120 to +140 mV starting at a holding potential of −90 mV. Currents were recorded under constant perfusion with control solution or with the test solutions containing either NMDG^+ instead of Na^+ as permeant ion (gray), or the K2 toxins together with 130 mM NaCl (black and blue), as indicated by the continuous horizontal lines. […]
(In patch-clamp work, channel activity is measured electrically.)

Series [2] is described as follows: Membrane partitioning of toxins into lipid vesicles measured using Trp fluorescence. The format is physicochemical. The source says:
Motivated by the amphipathic character evident in the structure of DkTx, together with the placement of the toxin at the protein-lipid interface when bound to TRPV1, we investigated the interaction of DkTx and each of its two lobes with lipid membranes. For these experiments, we took advantage of the presence of a single conserved and solvent accessible Trp residue in loop 2 of both K1 and K2 (Figure 1C,D; W11 and W53), and used Trp fluorescence to monitor the partitioning of the toxin from the aqueous solution into the membrane environment ([Gupta et al., 2015]; [Ladokhin et al., 2000]; [Milescu et al., 2007]). When aqueous solutions of DkTx were excited at a wavelength of 280 nm, emission spectra with maxima at 353 nm were obtained (Figure 5A, left), as expected for Trp residues residing in such an environment. […] To quantify the extent of partitioning as a function of lipid concentration, we measured the relative fluorescence intensity in a blue-shifted region of the spectra (e.g. 320 nm) as a function of lipid concentration, and fit a partition function to the data to obtain a mole-fraction partition coefficient (Kx) of (2.3 ± 0.7) × 10^6, indicating an energetically favorable interaction of DkTx with lipid membranes (Figure 5A, right). This strong interaction of DkTx with membranes would facilitate binding of the toxin to the channel by increasing the local concentration of the toxin near the channel and by a reduction in the dimensionality of diffusion within the membrane ([Axelrod and Wang, 1994]).
Figure 5. Interaction of DkTx and toxin constructs with lipid membranes measured using Trp fluorescence. […] (A–E, right panel) Relative fluorescence intensity at 320 nm (F/F0) as a function of available lipid concentrations (60% of total lipid concentration). […] Interaction of K1-K2 chimeras with lipid membranes measured using Trp fluorescence. […] (A–D, right panel) Relative fluorescence intensity at 320 nm (F/F0) as a function of available lipid concentrations (60% of total lipid concentration). […]

The record followed here is PMC4764579, “Structural insights into the mechanism of activation of the TRPV1 channel by a membrane-bound tarantula toxin” (eLife, 2016).

T1 sequence (O35433 whole entry): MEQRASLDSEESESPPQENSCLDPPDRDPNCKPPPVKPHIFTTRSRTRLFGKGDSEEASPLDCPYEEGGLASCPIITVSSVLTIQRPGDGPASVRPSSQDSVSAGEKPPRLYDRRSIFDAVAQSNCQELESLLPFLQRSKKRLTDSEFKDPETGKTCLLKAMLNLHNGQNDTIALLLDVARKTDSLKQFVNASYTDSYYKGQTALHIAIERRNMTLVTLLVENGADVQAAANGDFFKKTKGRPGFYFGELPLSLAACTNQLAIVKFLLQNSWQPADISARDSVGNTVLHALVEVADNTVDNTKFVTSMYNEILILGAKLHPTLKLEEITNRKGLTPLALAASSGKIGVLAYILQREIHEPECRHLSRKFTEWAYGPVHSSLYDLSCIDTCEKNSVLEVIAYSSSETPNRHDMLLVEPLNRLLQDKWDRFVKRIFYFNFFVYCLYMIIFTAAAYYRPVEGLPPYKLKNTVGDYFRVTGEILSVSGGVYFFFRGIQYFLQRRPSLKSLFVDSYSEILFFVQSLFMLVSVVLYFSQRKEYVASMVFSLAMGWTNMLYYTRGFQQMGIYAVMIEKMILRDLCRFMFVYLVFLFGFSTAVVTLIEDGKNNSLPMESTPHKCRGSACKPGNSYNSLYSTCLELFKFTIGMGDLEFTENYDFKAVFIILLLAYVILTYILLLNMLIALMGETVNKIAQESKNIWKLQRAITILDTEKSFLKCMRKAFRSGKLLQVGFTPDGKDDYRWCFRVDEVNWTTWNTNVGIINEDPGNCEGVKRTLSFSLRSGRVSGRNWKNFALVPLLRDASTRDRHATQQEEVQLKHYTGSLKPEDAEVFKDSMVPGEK

B1: double-knot toxin (protein)
chain: DCAKEGEVCSWGKKCCDLDNFYCPMEFIPHCKKYKPYVPVTTNCAKEGEVCGWGSKCCHGLDCPLAFIPYCEKYR
notes: produced recombinantly
On to B1, for which the “dissociation from TRPV1 after toxin removal (in words)” value in series [1] (HEK cells) is on record as “slow dissociation”. The “Fractional dissociation 1 min after toxin removal (current amplitude 1 min after toxin removal divided by steady-state current amplitude in presence of toxin)” value in series [1] (TRPV1 in HEK cells, +120 mV from voltage ramps, 1 µM toxin, mean ± sem, n = 8 (DkTx), 5 (K1K1), 6 (K2K2), SEM) stood at 0.8 ± 0.05. For the same molecule, in series [2] (Trp fluorescence, LUVs 1:1 POPC:POPG, 10 mM HEPES, 1 mM EDTA, pH 7.0, fit of partition function, ± SEM, n = 3 or 4, SEM), the “F/F0^max (relative fluorescence intensity at 320 nm when partitioning is saturated)” value came to 2.65 ± 0.08. For the same molecule, in series [2] (Trp fluorescence, excitation 280 nm, F/F0 at 320 nm, LUVs 1:1 POPC:POPG extruded through 100 nm, toxin 2 or 5 µM in 10 mM HEPES, 1 mM EDTA, pH 7.0, available lipid 60% of total, fit of partition function, ± SEM, n = 3 or 4, SEM), the “mole-fraction partition coefficient (Kx)” value was “(2.3 ± 0.7) × 10^6”. Further, the “measured free energy of membrane partitioning (ΔG° = −RT lnKx)” value in series [2] (from measured Kx, LUVs 1:1 POPC:POPG) is -8.5 kcal/mol.
